Experiment [1] addresses CDR1 antigen peptide (…), synthetic peptide of CDR 1 of the light chain of antibody 41S-2. Put plainly: cell-based or functional assay.
The target in a further experiment is HSA (human, UniProt P02768 25-609). Put plainly: ELISA (immunoassay of Experiment 3-3), absorbance at 405 nm.
For the next experiment, the target named is T1, OVA (UniProt P01012 2-386).
T1 sequence (looked up): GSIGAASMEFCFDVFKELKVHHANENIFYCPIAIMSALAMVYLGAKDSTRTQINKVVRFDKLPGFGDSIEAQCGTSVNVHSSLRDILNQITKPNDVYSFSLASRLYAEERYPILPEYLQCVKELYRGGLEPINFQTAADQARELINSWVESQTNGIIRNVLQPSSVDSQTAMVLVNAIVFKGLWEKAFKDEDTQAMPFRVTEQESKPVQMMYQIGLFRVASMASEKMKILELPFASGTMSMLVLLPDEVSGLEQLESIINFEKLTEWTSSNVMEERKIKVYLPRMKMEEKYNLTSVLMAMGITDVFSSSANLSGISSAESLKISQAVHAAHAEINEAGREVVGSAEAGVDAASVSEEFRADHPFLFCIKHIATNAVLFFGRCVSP
The experiment is described as above.

For experiment [2], the target named is ECL2B peptide (…), partial peptide of CCR-5 (human). Put plainly: cell-based or functional assay.
Chain of ECL2B peptide (…), partial peptide of CCR-5 (human) (peptide, as listed by the source): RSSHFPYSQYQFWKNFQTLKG
For experiment [3], the target named is ECL2B peptide (sequence No.38) as named in Experiment 3-9 (human). The experiment is described as follows: cell-based or functional assay.
Experiment [4] has as its target peptide TP41-1 of a retention region of gp41 (HIV-1) (…) (HIV-1). Put plainly: cell-based or functional assay.

Usually Km stands for the substrate concentration at which the rate is half of its maximum. The term kcat denotes the maximal rate divided by the concentration of active sites. A word on the kcat/Km: it is the turnover number divided by the Michaelis constant. In general, Vmax refers to the rate approached at saturating substrate.

Chain of HSA (P02768 25-609): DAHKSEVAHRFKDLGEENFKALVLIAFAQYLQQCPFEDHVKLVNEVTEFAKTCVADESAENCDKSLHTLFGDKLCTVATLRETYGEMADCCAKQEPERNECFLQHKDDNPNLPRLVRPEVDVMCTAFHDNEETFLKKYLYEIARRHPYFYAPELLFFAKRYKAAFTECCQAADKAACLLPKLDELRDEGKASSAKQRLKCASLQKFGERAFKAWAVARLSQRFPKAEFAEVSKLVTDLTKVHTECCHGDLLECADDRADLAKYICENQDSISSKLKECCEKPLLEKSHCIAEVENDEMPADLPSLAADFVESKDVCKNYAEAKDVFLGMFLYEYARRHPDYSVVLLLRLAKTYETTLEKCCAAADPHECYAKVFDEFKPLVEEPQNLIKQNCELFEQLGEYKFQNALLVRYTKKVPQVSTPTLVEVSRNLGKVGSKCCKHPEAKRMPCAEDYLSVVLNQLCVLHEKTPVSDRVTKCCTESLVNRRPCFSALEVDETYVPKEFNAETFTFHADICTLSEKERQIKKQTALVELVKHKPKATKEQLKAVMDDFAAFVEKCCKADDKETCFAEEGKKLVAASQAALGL
Description for HSA: (§1) The blocking was applied with 2% gelatin at room temperature.
Description for OVA: as §1

B1: light chain of i41SL1-2 antibody (i41SL1-2-L) (protein)
VL: DIVMTQTQLTLTINIGQPASISCKSSQSLLDSDGKTYLNWLFQRPGQSPKRLIYLVSKLDSGVPDRFTGSGSGTDFTLKISRVEAEDLGVYYCWQGTHFPLTFGAGTKLELRRA
Consider B1, for which, in experiment [1], the Km is 2 µM, the turnover number (kcat) was 0.0102 s⁻¹ and the kcat/Km was 5170 M⁻¹ s⁻¹.

B2: monoclonal antibody ECL2B-2 (antibody, V domains shown)
VH: DVKLVESGGGLVKPGGSLKLSCAASGFTFSRYTMSWVRQTPEKRLEWVATISSGGSYTYYPDSVKGRFTISRDIAKNTLYLQMSSLKSEDTALYYCTREGGYGAFASWGQGTLVTVS
VL: DVLMTQTPLSLPVSLGDQASISCRSSQSIVHSNGNTYLEWYLQKPGQSPKLLIYKVSNRFSGVPDRFSGSGSGTDFTLKINRVAAEDLGVYYCFQGSHVPWTFGGGTKLEIKR
notes: also called intact monoclonal antibody ECL2B-2
Regarding B2, the binding result with HSA and with OVA was “no binding” each time.

B3: heavy chain of i41SL1-2 antibody (i41SL1-2-H) (protein)
VH: QVQLQHSGAELVRPGSSVKVSCKALGYTSTDYEIHWVKQTPVRGLEWIGAIHPGSDVIVYNQKFKGTATLTADKSSSTAYMELRSLTSEDSAVYYCTREGGSVDYVWGQGTLVTVSA
Regarding B3, in experiment [1], the Km was determined as 13 µM, the kcat is 0.0103 s⁻¹ and the kcat/Km amounted to 812 M⁻¹ s⁻¹.

B4: light chain of ECL2B-2 (ECL2B-2-L) (protein)
VL: DVLMTQTPLSLPVSLGDQASISCRSSQSIVHSNGNTYLEWYLQKPGQSPKLLIYKVSNRFSGVPDRFSGSGSGTDFTLKINRVAAEDLGVYYCFQGSHVPWTFGGGTKLEIKRA
B4: the time until the ECL2B peptide disappeared (RP-HPLC) in experiment [2] amounted to 90 h.

B5: light chain of ECL2B-4 (ECL2B-4-L) (protein)
VL: DVLMTQTPLSLPVSLGDQASISCRSSQSIVHSNGNTYLEWYLQKPGQSPKFLIYKVSNRFSGVPDRFSGSGSGTDFTLKISRVETEDLGVYYCFQGSHVPWTFGGGTKLEIKRA
For B5, in experiment [3], the Michaelis-Menten constant (Km) worked out at 35 µM, the maximum rate (Vmax) came out at 0.31 µM/min, the kcat is 0.012 s⁻¹ and the kcat/Km was found to be 367 M⁻¹ s⁻¹. Further, in experiment [4], the Michaelis constant (Km) was found to be 12.5 µM, the Vmax worked out at 0.0624 µM/min, the kcat was 0.00267 s⁻¹ and the kcat/Km was found to be 208 M⁻¹ s⁻¹.

B6: monoclonal antibody ECL2B-3 (antibody, V domains shown)
VH: QIQLVQSGPELKKPGETVKISCKASGYTFTNYGMNWVKQAPGKGLEWMGWINTYTGEPTYAGDFMGRSVFSLETSASTAYLQINNLENKDTATYICARSGSPYAMDYWGQGTSVTVS
VL: DIALTQSPASLAVSLGQRATISCKASQSVDYDGDSYMNWFQQKPGQPPKLLIYAASNLESGIPGRFSGSGSGTDFTLNIHPVEEEDIATYYCQQSYEDPFTFGSGTILDIKR
B6: the binding result in the experiment with HSA and with OVA was “no binding” in each case.

These data come from patent publication US20060030015A1 (published 2006).
